We go through four molecules from article PMC5758568, “Cryo EM structure of intact rotary H^+-ATPase/synthase from Thermus thermophilus” (Nature Communications, 2018).

First the molecules themselves.
B1: D-subunit of the V/A-ATPase from Thermus thermophilus (natural protein, UniProt O87880 1-223, looked up)
chain: MSQVSPTRMNLLQRRGQLRLAQKGVDLLKKKRDALVAEFFGLVREAMEARKALDQAAKEAYAALLLAQAFDGPEVVAGAALGVPPLEGVEAEVENVWGSKVPRLKATFPDGALLSPVGTPAYTLEASRAFRRYAEALIRVANTETRLKKIGEEIKKTTRRVNALEQVVIPGIRAQIRFIQQVLEQREREDTFRLKRIKGKIEAREAEEEGGRPNPQVEIGAGL
notes: V/A-type ATPase D-subunit (central rotor shaft), Thermus thermophilus; native subunit in the isolated whole enzyme; One copy in the enzyme (D1F1d1c12 rotor); also called subunit D; V1-DF (with F)
B2: E-subunit of the V/A-ATPase from Thermus thermophilus (natural protein)
chain: MSKLEAILSQEVEAEIQALLQEAEAKAEAVKREAEEKAKALLQARERALEAQYRAALRRAESAGELLVATARTQARGEVLEEVRRRVREALEALPQKPEWPEVVRKLALEALEALPGAKALVANPEDLPHLEALARERGVELQAEPALRLGVRAVGAEGKTQVENSLLARLDRAWDALSSKVAQALWG
notes: V/A-type ATPase E-subunit (peripheral stalk), Thermus thermophilus; native subunit in the isolated whole enzyme; Two copies in the enzyme (two EG stalks); also called subunit E; EG stalk (with G)
B3: F-subunit of the V/A-ATPase from Thermus thermophilus (natural protein)
chain: MAVIADPETAQGFRLAGLEGYGASSAEEAQSLLETLVERGGYALVAVDEALLPDPERAVERLMRGRDLPVLLPIAGLKEAFQGHDVEGYMRELVRKTIGFDIKL
notes: V/A-type ATPase F-subunit (central rotor), Thermus thermophilus; native subunit in the isolated whole enzyme; One copy in the enzyme; also called subunit F; V1-DF (with D)

Holding throughout (experiment): cryo-EM structure; single particle cryo-EM of the whole V/A-ATPase in TE buffer (20 mM Tris-HCl pH 8.0, 0.1 mM EDTA) with 0.003% LMNG and 100 mM NaCl, no nucleotide added; three rotational states (5.0, 6.7, 7.5 Å), focused V1EGd map of state1 4.7 Å; crystal structures and homology models fitted by MDFF
The target in assay [1] is c-subunit (subunit L) of the V/A-ATPase from Thermus thermophilus, with His3 tag on the C-terminus (Thermus thermophilus).
Assay [2] deals with T1, d-subunit (subunit C) of the V/A-ATPase from Thermus thermophilus (Thermus thermophilus, UniProt P74902 1-323).
T1 construct: native subunit in the isolated whole enzyme; One copy in the enzyme; also called Vo-d
T1 sequence: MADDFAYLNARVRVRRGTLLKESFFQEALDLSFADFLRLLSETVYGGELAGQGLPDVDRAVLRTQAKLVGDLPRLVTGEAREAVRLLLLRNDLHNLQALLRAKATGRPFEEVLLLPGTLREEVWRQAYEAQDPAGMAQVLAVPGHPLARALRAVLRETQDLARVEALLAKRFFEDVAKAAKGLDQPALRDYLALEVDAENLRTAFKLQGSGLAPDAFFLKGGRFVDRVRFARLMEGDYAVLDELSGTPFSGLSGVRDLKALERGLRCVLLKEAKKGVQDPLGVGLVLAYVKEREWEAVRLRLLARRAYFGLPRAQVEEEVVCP
To be noted: both partners purified.

For assay [3], the target named is T2, B-subunit of the V/A-ATPase from Thermus thermophilus (Thermus thermophilus, UniProt Q56404 1-478).
T2 construct: V/A-type ATPase B-subunit (V1 part), Thermus thermophilus; native subunit in the isolated whole enzyme; Three copies in the enzyme (A3B3); also called subunit B
T2 sequence (looked up): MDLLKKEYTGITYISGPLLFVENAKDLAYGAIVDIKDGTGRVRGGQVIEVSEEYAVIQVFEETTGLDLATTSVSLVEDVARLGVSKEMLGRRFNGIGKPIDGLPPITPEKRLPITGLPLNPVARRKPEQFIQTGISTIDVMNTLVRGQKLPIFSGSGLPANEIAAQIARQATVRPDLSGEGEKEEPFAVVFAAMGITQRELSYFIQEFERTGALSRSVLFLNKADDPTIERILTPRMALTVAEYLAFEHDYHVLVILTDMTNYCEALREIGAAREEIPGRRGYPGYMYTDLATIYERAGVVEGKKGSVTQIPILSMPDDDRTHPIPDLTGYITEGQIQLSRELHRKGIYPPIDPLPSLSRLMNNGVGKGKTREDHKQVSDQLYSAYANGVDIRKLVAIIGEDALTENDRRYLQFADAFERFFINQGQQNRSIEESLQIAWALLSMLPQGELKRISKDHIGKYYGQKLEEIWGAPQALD
To be noted: both partners purified.

Assay [4] has as its target B1. As to conditions: both partners purified.

“c-subunit (subunit L) of the V/A-ATPase from Thermus thermophilus, with His3 tag on the C-terminus (natural protein)”: in assay [1], the stoichiometry N (as a rule, the number of molecules, sites or subunits per partner or assembly) came to 12.

As to B1, in assay [2], the binding result is “binds”.

As to B2, the binding result in assay [3] was “binds”.

Regarding B3, the binding result in assay [4] was “binds”.
